From the DeepSol protein solubility set

test: soluble on expression in E. coli; label from the status in PepcDB or PDB records

Sequence | soluble on expression in E. coli
MSLYDELKNEFKRVLLDRQLTEELAEECATAFTDTTQAGAYSHGINRFPRFIQQLEQGDIVPNAIPTKVLSLGSIEQWDAHQAIGNLTAKKMMDRAIELASQHGVGVIALRNANHWMRGGSYGWQAAEKGYIGICWTNALAVMPPWGAKECRIGTNPLIIAVPTTPITMVDMSCSMYSYGMLEVHRLAGRQTFVDAGFDDEGNLTRDPSIVEKNRRLLPMGFWKGSGLSIVLDMIATLLSNGESTVAVTEDKNDEYCVSQVFIAIEVDRLIDGKSKDEKLNRIMDYVKTAERSDPTQAVRLPGHEFTTILSDNQTNGIPVDERVWAKLKTLEGHHHHHH | not soluble
MSLYGGIPTNLVSGMSSAGAICTTQIRDAREREKREIGLLNDRLADYIEKVRFLKAQNHVLSHDIEILRRGFSGGGHISSFFESEISNCTVISERILSSRTKFQADITGLEGEIEIYRKKWLEALKVVRSHREDHHVNLDKLAEVEAQIALFNRKIRIVEEDVLRIRRETGGIQNDIGRIHSQIHAEIALKNERHHSVQMLLQRVQVIQTENSSRIEQELIYIHRDTTLENRDYFRQELQAAMRDIRANYEAMSIRSREDIEIAYRKRIDEIRVIPAHVHIEDYREELLSIRTTLSTTHSRLAEIESRNAWLLTTITDLKHQQAEEARIFEATLDAKQATYEQFKERCTELSIQMEKLCDHETSLQAELERYRVLLNGANVTTYVSNSTGAAGYRSSTHVATTTTTTTNGYSSGYTAGGYTSGGYTTGGYTRGITAGGAVGGISTGGYIGRSSSSHGISVGGNIGGVSVGGHINGYHASGDISAAGRHHESSYSYSSSNN | not soluble
MSLYKIGELSKIVNLSIETIRYYEKIRLIPKPERFNNRYKKYSEMYIYRLKIIIKAKNYGFTLHEISNFLSEVSTSSIEDIDLSSTIMNKVQQIEKECERLNYKKNQLLKFEEEINDLQCPVLNRIINEKNEGHHHHHH | soluble
MSMSDIGGKDRLNDEKRVTVRLSRSMVEEMEDLVNRDEYESVSDLVRKAVSALLESRGVNSDFLPVQIMVPKNLIEKLGKDSTKPVNLSLDEFSSLILDRINGLTVRETIKKIVHEENIK | not soluble
MSMVVDSVPDSSTFVGKTIRPVAAVSIHGIVFDGERLLAVDSKNGYLLEIDPYTNNTKLLNGQYWQEFIGATGLAIADRQLWFSSGQYVYTCNLEGPDLKPEVFAWFDDPVNGVAIWESTVYITCHKRGHIWVYGRDTRKLVATFYSPGIGVENITVRGEELWVCDSAEQSVYCLDRATGEINFSLITPFESPTGLAFYDDQAVGKATLYVAYVQQEPYVRDNPNADPNHELMYRETTFIHPLYFYNDPHQCCAFSNGYLVEMRYVEELAPLDPVDLKQVEWRMALPAVTPRQRIRKIESVGLPFSRIDDVNGQKVAVFEFDQLDLDSRAVFGWRVEMEVWGIKYRLKPSDCEHLPALPEGFADRYLVDNDNLSMETDIIIRAAAEAIGRETNLLRQMFNIRNYVYDRLSYGIKPHIDTPDLALRRGVGSCGEYVGVLLALARLNGIACRTAGRYKCPPHPLQRNLPMEPDFNHVWFEFYLPGIGWLPMESNPDDTNDGGPYPTRFFMGLAWYHAETAKDVPFEQLLSQGIPVNKQVVSIGELAINHVQFTILEELDPAAHLAHLEHHHHHH | soluble
MSNDVYIIGAGETKFGELWDKSLRDLAVEAGLEAIKDANIYSKDLQMLYASNSLAGTINEQSNIAALAADFSGIAENHVPAVRVEASTASGGAAVREAYLAIKSGEYDVVMVGGVEKMTDIYGTEIIDVQSSILDREWESFNGATPAAMAAIAARRYMHDFNVEREAISMVAVNDHANASLNPDAQYRNKITVDQVLNSDPVAEPLNVFDCSPITDGASAIILASEGFVKKNRIDGVRIL | not soluble
MSNIYDSANELSRGLRGLPEYKAVKAAKDAIAADAEASKIFTDYLAFQEEIQKLAQTGQMPDASFQAKMEGFGKQIQGNSLLSEFFTKQQQLAIYLSDIEKIVFEPVSELLK | soluble
MSNQYGDKNLKIFSLNSNPELAKEIADIVGVQLGKCSVTRFSDGEVQINIEESIRGCDCYIIQSTSDPVNEHIMELLIMVDALKRASAKTINIVIPYYGYARQDRKARSREPITAKLFANLLETAGATRVIALDLHAPQIQGFFDIPIDHLMGVPILGEYFEGKNLEDIVIVSPDHGGVTRARKLADRLKAPIAIIDKRRPRPNVAEVMNIVGNIEGKTAILIDDIIDTAGTITLAANALVENGAKEVYACCTHPVLSGPAVERINNSTIKELVVTNSIKLPEEKKIERFKQLSVGPLLAEAIIRVHEQQSVSYLFS | soluble
MSNRDQLFKAPPFENHSPLTWYQAASQLPNFIRDDAQAAAIEHLDRLWTELMMFKRKRNRFLGRSLRSPQVPKGLYFYGGVGRGKSFLMDAFFGCLPYRRKRRVHFHAFMAEIHQRLKTLKSESNPLKSVAAEIAKETRVLCFDEFHVSDIADAMILGRLLENLLNEGVVLVATSNYAPSELYPQGQNRSSFLPTIALIESSLTVLNVDGGEDYRLRTLRPAEIFFTPANEENEAKLAKLFKEMTGITDLNPGISTIHGREIPHKAESGRAIWFDFRALCFGPRSQSDYLYLAEHYEMVFISGLEQLSPQEKAEARRLTWLIDVLYDFRVKLCATGAVDVNHIYTEGDFAEEFTRTASRMVEMQSEVYLEQPHLTLSPKASGG | not soluble
MSNSKPVNYLTLKCLLKNMDSGMRLQLFVMFPSIQYLEKLFPLHVKYLTIKSDHITVNRTTFQLKICNKYNNFHGGYKFDFDQYGRLDRGEIEQDPDESIIDVRDGFLSKKGIPECEMETARLVHNLTLQKSQRYSTRIWESHGTILKKLSYYVPENNFIRLKIGKRVEVLEYQRKIHEAMKYLLGRLFGGRSLEANQFSIGCDTVLRVPSTLKFRIENLYTPSFKIANTLDVVNQIVDNSSLPLSSLKYSFENHIYHHPHSLVRTVKMLKLEVEMVPDYISGIVSNLQMVDEKRAHIVFLGDCTSSNFLKILAHWILEFHRDIGTYHTYQLSEAVVDEVMIFVRTNYGVMIEAGLPQTTDQITLNINDTSSLVISKFQQKEKWIFGLKMEH | not soluble
MSNYTIIDLNQQPHLIPSAAQWFSQKWQIPAEAYQASMQEMLTSENHVPHWWVCLNKQQDIVAGVGVIDNDFHNRADLTPNLCALYVEPTFRHQGLAGILLTTVGDFLANSGFKKLYLLTDHTTFYERYDWEFLTMVTTEEQSCARIYQKQLRQ | not soluble
MSPAPVQVMGVLNVTDDSFSDGGCYLDLDDAVKHGLAMAAAGAGIVDVGGESSRPGATRVDPAVETSRVIPVVKELAAQGITVSIDTMRADVARAALQNGAQMVNDVSGGRADPAMGPLLAEADVPWVLMHWRAVSADTPHVPVRYGNVVAEVRADLLASVADAVAAGVDPARLVLDPGLGFAKTAQHNWAILHALPELVATGIPVLVGASRKRFLGALLAGPDGVMRPTDGRDTATAVISALAALHGAWGVRVHDVRASVDAIKVVEAWMGAERIERDG | soluble
MSPFDYLHFALLLVAPLAVLIGCGGKKKPPPPKSASKMGPPPPAPAPPTAPEATPAAPAPDAAAAAPAEGEKKDGDKKSEKKDGDKKEEEKKDEEKKDGDKKEDDKKDEKKDEDKKDEKKDADEKKDEEKKDDKKDEKKDEKKDEKKEKSKKSKKSSKSKKSKKSKREKKDEDKKEDDKKEDDKKDDKKEDDKKDDEKKDDDKKDDEKKE | not soluble
MSPNPVEKAAILRIIDSIDARDDDYCAHEFNVYRWLVAYGNEEEEAAKALKRHLNIRKTIDLNSYSSKTELEEDELNKYVPIDVIGQNHQDDNKVLMFERTGKIDISGLVDNVLMHKFMQIKLKMMEGVHQKVVAAERKTGRQSGGLFIMDLDGISFSPKLISVLTGPYRIMWGTLFDHYPQLLQKIIIVNAPSFVNVLHQACSPFLPEDYKEKIVITSEPAIGAIQKHADKCFLPSDLGGDLEKTTSLPMAPFPKMNKKYEKEKEKVSLLAISVPAGKYTVQKFSWKKGDEVEFFLHNESSFHYFMFHSEEDTKDMDLWREMTVGCERPALSQIDSWKYTVPIDGFYFIRYGNHNSWYFSTTVNVNHFISNENGERIELVPIETFNI | not soluble
MSPVSARFEPAALRPDLARIAGWIEPGSRVLDLGCGDGALLAYLRDHRQVRGAGVEIDDNYVIACVQRGVEVIQQNLEDGLALFDDQQFDTVVLSQTLQSMHRTEHILREMARVARHGVVSFPNFGYWPHGWSILRGRMPVTGQMPYQWYNTPNIHLCTLRDFEDLAGTLGLRILQRATFNEGREVRVFPSWRSTLALYRFAASLEHHHHHH | not soluble
MSQATQQLDETRLALADALQAGNWDAIGELDQVCQVKIDQAMHDDERDEQALRVSLEQLLSLYNDMLSACRQQREAIGAELTGLQRASKGAKVYQMFG | not soluble
MSQDVNELSKQPTPDKAEDNAFFPSPYSLSQYTAPKTDFDGVEHKGAYKDGKWKVLMIAAEERYVLLENGKMFSTGNHPVEMLLPLHHLMEAGFDVDVATLSGYPVKLELWAMPTEDEAVISTYNKLKEKLKQPKKLADVIKNELGPDSDYLSVFIPGGHAAVVGISESEDVQQTLDWALDNDRFIVTLCHGPAALLSAGLNREKSPLEGYSVCVFPDSLDEGANIEIGYLPGRLKWLVADLLTKQGLKVVNDDMTGRTLKDRKLLTGDSPLASNELGKLAVNEMLNAIQNK | not soluble
MSQEDLELFQQMMGDVKTITHDTVELKKAHQVTEAQLAKREAAVSLADHDPEALSIDHAPMLKPDDMLEFKRDGVQDGVYRKLRLGKYPIQARLDLHRKTLKEARSEVIQFIRQCMAMDIRTLLIVHGRGERSTPPALMKSFVSHWLTQISEVQCAHSAQRLHGGTGAVYVLLRKSAEKKAENRERHQKRLG | not soluble
MSQEFVGRWKLIHSENFEEYMKEVGVGLITRKAAANLKPTLEIKVEGDLWYSNQYSTFKNTTLSFKLGQEFDETTPDGRTVKSVVNFENGKFIHIQKKIKDSDKESIITRWLEGDKLITTLESGSVVSRREYVRE | not soluble
MSQFEKQKEQGNSLFKQGLYREAVHCYDQLITAQPQNPVGYSNKAMALIKLGEYTQAIQMCQQGLRYTSTAEHVAIRSKLQYRLELAQGAVGSVQIPVVEVDELPEGYDRS | not soluble
MSQFKNIIVTGGAGFIGSNFVHYVYNNHPDVHVTVLDKLTYAGNKANLEAILGDRVELVVGDIADAELVDKLAAKADAIVHYAAESHNDNSLNDPSPFIHTNFIGTYTLLEAARKYDIRFHHVSTDEVYGDLPLREDLPGHGEGPGEKFTAETNYNPSSPYSSTKAASDLIVKAWVRSFGVKATISNCSNNYGPYQHIEKFIPRQITNILAGIKPKLYGEGKNVRDWIHTNDHSTGVWAILTKGRMGETYLIGADGEKNNKEVLELILEKMGQPKDAYDHVTDRAGHDLRYAIDASKLRDELGWTPQFTDFSEGLEETIQWYTDNQDWWKAEKEAVEANYAKTQEVIK | soluble
MSQFSFTKMHGLGNSYIYVNMFEEQIPEEDLALVAEKVSNINTGIGADGMILICPSDVAPVKMRMFNNDGSEGKSCGNGLRCVAKYAYEHKLVEDTVFTIETLAGIVTAEVTVEEGKVTLAKIDMGAPRLTRAEIPMLGEGETPFIRENFLYNNHRYAFTAVSMGNPHAVIFVDDVEQAPLTTLGPVLETHEMFPERVNVEFIEILNEEEMNFRVWERGSGVTQACGTGACAAVVASILNGKMERGKEITVHLAGGDLMIAWTEEGNVLMKGPAEVICRGVYEYKIEA | not soluble
MSQLSPKNKNDLRQCVLYEFIDGKPVFEAYKSFCDVIGDSCMDYVDFEFWFMRFANGNLNLDFNFDKSSSLSIFNIPIEILVKIMNELDWVSRLSMRQVSRAFRSIVDEESKMPKSLSFGFYDDTVFLQYDDSCVKYKDLEEEGHDDKIDIALFDFGVTLINPRLKLDYFEVLIDAKHGLDIDSDKCFKSLEALLKARNLPLPVKNVNIETNSGYEMNHAKNIIPYLKSGVLEKIVTNCDSSSFENIEIMKEIVELDQWKQAKHLEIDSLVKIPIENFLHFEHFELFFEHLCFQDVKERLLESSNFRHCTLQVMNSFDLEELAANFGIQYMGDDEGIRQTTFYEISTNSLEMTMFLDFVTFDRKF | not soluble
